Patent US20100129369A1 (Eli Lilly, published 2010)

How the values were obtained:
[1] = target: T1, Rat c-Met-Flis-Fc ECD (rat); assay: SPR (Biacore), antibody captured
T1 construct: also called Rat cMet-ECD-Fc-Flis; rat c-Met ECD
Method: A Biacore® 2000 instrument is used to measure the binding kinetics of c-Met antibodies to human, cynomolgus monkey, and rat c-Met ECDs. Measurements are performed at 25° C. Samples are dissolved in HBS-EP buffer (150 mM sodium chloride, 3 mM EDTA, 0.005% (w/v) surfactant P-20, and 10 mM N-2-hydroxyethylpiperazine-N′-2-ethanesulfonic acid (HEPES) at pH 7.4; #BR-1001-88).
Binding is evaluated using multiple cycles. Each cycle is performed at a flow rate of 50 μL/min., and consists of the following steps: injection of about 10 μL of a c-Met antibody at 10 μg/mL aiming at a capture of 40-100 RUs, injection of 250 μL of human, cynomolgus, or rat c-Met-Flis-Fc ECD (starting at 100 nM and using two-fold serial dilutions for each cycle) followed by 20 min. for dissociation, and regeneration using about 30 μL of 10 mM glycine hydrochloride, pH 1.5. Association and dissociation rates for each cycle are evaluated using a “1:1 (Langmuir) binding” model in the BIAevaluation software, version 4.1.

[2] = target: T2, mouse c-Met ECD (mouse, UniProt P16056 25-931); assay: ELISA, coated ECD (data not shown)
T2 construct: extracellular domain

[3] = target: T3, PlexinA2-ECD-Fc (human, UniProt O75051 35-1237); assay: ELISA, coated ECD-Fc, antibody 0.357 ng/mL
T3 construct: extracellular domain; Bought reagent
T3 sequence (looked up): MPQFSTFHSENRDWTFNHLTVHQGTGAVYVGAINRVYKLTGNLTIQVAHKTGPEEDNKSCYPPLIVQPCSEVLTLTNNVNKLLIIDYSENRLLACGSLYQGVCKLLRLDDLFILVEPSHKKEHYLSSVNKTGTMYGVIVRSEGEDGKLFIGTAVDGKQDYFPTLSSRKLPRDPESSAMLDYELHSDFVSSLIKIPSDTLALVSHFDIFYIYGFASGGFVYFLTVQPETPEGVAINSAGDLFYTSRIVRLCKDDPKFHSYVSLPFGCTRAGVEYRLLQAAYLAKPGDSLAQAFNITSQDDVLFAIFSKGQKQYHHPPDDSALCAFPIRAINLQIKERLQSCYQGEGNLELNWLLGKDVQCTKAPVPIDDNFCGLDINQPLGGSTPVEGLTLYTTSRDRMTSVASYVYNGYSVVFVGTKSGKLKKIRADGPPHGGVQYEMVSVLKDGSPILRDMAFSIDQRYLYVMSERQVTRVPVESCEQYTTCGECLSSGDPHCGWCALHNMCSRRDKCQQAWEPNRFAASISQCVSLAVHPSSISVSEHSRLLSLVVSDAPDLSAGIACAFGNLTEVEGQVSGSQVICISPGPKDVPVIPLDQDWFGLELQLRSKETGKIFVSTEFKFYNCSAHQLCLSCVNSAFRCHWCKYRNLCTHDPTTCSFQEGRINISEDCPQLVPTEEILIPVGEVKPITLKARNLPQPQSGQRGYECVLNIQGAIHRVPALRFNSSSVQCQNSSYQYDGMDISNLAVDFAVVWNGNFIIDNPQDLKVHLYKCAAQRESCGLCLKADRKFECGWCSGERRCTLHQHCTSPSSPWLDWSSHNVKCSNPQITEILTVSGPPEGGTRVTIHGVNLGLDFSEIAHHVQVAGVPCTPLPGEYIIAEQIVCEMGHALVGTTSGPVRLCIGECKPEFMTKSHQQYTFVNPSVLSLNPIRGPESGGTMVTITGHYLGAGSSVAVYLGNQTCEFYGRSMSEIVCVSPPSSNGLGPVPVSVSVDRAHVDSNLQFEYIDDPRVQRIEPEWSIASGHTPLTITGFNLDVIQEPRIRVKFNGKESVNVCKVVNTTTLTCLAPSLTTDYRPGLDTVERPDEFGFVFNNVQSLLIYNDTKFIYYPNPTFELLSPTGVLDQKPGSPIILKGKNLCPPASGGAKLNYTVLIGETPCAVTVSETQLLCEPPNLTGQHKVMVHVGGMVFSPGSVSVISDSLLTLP
Method: (§1) Wells of 96-well EIA/RIA high binding plates (Costar, #2592) are coated with 100 μL of 1 μg/mL human c-Met extracellular domain (ECD)-Fc-Flis fusion (SEQ ID NO:72), RON-ECD-Fc (R&D Systems, #1947-MS), or PlexinA2-ECD-Fc (Abnova, Taipei, Taiwan #H00005362-P01) in coating buffer (BioFX Labs, # COAT-1000-01) overnight at 4° C. […] After the plates are washed, 100 μL/well of substrate solution (BioFx, #TMBW-1000-01) are added and the plates are incubated for 10 min. at room temperature. 100 μL/well of stop solution (BioFx, # LSTP-1000-01) are added to stop the reaction. The colorimetric signals are developed and read at 450 nm using a SpectraMax 190 plate reader (Molecular Devices, Sunnyvale, Calif.). c-Met antibody binding to c-Met, RON and PlexinA2 ECDs is proportional to color signal production.

[4] = target: T4, Human c-Met-Flis-Fc ECD (human); assay: ELISA, coated ECD-Fc, antibody 0.357 ng/mL
T4 construct: also called human c-Met extracellular domain (ECD)-Fc-Flis fusion; Human cMet-ECD-Fc-Flis
Method: as §1

T4 sequence (chain, as listed by the source limits assumed): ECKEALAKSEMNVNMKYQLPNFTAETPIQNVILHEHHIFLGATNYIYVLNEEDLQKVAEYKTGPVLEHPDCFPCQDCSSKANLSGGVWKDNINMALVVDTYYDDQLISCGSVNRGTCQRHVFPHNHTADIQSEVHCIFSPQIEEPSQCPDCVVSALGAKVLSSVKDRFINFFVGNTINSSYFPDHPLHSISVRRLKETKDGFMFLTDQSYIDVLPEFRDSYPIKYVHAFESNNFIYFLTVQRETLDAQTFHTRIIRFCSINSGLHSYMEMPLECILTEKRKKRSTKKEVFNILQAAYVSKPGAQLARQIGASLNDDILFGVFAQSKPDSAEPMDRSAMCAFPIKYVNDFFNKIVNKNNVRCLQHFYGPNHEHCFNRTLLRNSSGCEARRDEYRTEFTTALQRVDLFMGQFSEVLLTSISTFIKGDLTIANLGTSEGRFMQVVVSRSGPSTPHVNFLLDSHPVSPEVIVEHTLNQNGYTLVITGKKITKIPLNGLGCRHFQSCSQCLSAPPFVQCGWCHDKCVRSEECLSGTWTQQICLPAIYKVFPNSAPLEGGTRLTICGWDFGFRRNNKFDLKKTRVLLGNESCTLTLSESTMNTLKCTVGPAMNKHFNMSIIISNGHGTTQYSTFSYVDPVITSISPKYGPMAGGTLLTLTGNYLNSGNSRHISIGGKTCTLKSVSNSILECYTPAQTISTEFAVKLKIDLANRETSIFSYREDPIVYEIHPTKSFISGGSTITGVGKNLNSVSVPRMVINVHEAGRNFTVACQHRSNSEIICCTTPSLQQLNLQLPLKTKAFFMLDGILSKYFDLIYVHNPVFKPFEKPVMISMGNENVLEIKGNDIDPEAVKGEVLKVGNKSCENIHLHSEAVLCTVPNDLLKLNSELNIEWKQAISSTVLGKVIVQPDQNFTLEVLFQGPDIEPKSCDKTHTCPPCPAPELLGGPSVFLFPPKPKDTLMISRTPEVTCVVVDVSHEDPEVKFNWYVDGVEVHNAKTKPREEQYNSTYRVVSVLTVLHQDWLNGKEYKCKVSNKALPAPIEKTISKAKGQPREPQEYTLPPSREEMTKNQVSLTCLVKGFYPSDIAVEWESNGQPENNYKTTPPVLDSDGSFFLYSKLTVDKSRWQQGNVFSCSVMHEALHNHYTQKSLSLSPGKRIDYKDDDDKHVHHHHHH
T1 sequence (chain, as listed by the source limits assumed): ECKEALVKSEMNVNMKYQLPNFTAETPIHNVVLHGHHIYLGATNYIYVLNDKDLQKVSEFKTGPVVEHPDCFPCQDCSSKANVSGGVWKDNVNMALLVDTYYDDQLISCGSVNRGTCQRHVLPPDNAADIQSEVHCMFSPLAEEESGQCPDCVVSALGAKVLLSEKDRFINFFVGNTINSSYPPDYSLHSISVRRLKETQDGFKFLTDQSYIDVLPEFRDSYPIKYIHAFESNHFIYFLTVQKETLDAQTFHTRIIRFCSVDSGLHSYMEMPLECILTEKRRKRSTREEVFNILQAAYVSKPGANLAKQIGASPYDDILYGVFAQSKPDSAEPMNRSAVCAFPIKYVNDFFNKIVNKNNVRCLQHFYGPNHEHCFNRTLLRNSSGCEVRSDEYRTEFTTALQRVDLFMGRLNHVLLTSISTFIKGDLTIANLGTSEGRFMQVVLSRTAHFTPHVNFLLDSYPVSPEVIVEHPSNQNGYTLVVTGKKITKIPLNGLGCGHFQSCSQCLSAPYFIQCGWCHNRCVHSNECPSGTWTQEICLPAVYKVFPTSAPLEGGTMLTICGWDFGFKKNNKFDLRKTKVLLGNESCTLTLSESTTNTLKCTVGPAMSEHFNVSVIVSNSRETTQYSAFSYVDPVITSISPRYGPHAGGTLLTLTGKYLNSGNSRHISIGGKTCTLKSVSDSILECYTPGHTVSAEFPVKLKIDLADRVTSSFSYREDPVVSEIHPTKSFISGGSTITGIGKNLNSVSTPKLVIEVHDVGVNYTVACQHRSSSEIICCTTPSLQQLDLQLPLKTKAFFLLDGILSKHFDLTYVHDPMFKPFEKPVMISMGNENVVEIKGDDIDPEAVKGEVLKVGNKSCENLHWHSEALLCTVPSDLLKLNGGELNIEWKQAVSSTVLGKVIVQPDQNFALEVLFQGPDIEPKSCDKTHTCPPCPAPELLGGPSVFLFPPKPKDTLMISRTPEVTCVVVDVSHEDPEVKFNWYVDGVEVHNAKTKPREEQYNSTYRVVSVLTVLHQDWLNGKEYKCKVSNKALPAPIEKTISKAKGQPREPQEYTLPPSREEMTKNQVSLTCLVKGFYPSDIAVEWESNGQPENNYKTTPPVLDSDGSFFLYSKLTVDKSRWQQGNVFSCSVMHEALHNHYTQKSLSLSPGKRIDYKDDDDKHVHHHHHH
T2 sequence (P16056 25-931): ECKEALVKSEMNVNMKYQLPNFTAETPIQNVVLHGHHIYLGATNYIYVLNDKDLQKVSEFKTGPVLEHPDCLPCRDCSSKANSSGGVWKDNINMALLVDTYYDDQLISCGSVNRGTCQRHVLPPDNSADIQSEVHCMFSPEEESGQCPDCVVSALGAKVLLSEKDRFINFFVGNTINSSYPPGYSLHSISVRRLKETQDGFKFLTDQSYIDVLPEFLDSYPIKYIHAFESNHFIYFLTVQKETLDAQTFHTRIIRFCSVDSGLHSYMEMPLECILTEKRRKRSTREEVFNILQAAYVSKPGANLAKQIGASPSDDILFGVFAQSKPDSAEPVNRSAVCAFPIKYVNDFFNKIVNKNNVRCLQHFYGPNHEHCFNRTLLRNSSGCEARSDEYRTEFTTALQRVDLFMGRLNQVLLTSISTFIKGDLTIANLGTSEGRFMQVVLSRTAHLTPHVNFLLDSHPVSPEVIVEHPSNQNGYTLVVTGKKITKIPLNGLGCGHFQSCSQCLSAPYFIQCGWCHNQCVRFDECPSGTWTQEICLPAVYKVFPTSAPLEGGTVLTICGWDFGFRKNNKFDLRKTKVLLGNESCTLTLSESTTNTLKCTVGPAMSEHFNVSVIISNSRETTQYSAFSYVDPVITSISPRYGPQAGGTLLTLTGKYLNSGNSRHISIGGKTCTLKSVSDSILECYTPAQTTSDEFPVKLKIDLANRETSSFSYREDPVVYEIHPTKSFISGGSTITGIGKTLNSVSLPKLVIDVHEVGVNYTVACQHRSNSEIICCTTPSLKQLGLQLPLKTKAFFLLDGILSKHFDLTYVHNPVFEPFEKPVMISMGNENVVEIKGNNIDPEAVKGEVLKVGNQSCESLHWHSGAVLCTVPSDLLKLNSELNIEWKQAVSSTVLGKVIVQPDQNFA

B1: C8-6 (antibody, human IgG2, kappa, V domains shown)
VH: QVQLVQSGAEVKKPGASVKVSCKASGYTFTDYYMHWVRQAPGQGLEWMGRVNPNRGGTTYNQKFEGRVTMTTDTSTSTAYMELRSLRSDDTAVYYCARTNWLDYWGQGTTVTVSS
VL: DIQMTQSPSSLSASVGDRVTITCSVSSSVSSIYLHWYQQKPGKAPKLLIYSTSNLASGVPSRFSGSGSGTDFTLTISSLQPEDFATYYCIQYSGYPLTFGGGTKVEIKR
notes: Called IgG4, kappa; also called Mab C8-6
- binding result [1]: no binding
- binding result [2]: no binding (tested: 100 nM)
- Average A450 nm [3]: 0.107 A450 nm
- Average A450 nm [4]: 0.813 A450 nm
